This note sets out measurements from the RNAGym collection of RNA variant scans (doi:10.7554/elife.80360).

B1: HDV Ribozyme (parent)
chain: GGCCGGCAUGGUCCCAGCCUCCUCGCUGGCGCCGGCUGGGCAACAUUCCGAGGGGACCGUCCCCUCGGUAAUGGCGAAUGGGACCCA

The variants in this data set derive from B1. Briefly: self-cleavage, relative activity (ratio to wild type); higher = more cleavage; co-transcriptional.
Take U79G G82U: the self-cleavage was determined as 0.271. For A42C G82U the value was 0.138; for G10C C75G, 0.115; for G59C U65C, 1.01.

As to G34C A45G, the self-cleavage came out at 0.147. In the case of G10A C41G, the self-cleavage is 0.68. As for A56C U69A, the self-cleavage turned out to be 0.776. For C30U A43G the value was 0.0755; for G11U U65C, 0.19; for C26G C30U, 0.415. With G39A G54A, the self-cleavage was 0.54. With C75A U79C the figure was 0.0707.

Regarding G25U A70U, the self-cleavage amounted to 0.0852. For A43C G50U the value was 0.432; for C24G A51G, 0.111.

In the case of C62U A87U, the self-cleavage is 1.08. As to G5C G67U, the self-cleavage was found to be 0.248.

Consider G17C G55U, for which the self-cleavage is 0.208. For C49U G73U the value was 0.509; for C22A G40C, 0.0282. As to C61U A71G, the self-cleavage stood at 0.997. As to G39C A87G, the self-cleavage was determined as 0.204.

In the case of U9C G53U, the self-cleavage was determined as 1.26.

On to C33U C61U, for which the self-cleavage stood at 0.918. For A16G G29C the value was 0.

As to C18U U47C, the self-cleavage was found to be 0.332. On to G11A G17C, for which the self-cleavage is 0.113. As to C41G U60C, the self-cleavage amounted to 0.997. With C22G U69G the figure was 0.108; with C7U A16U, 0.643; with U23C A43U, 0.298.

Consider C48U G59U, for which the self-cleavage came to 1.06.

Regarding G5C C7U, the self-cleavage came to 0.0462. As for G76C C86G, the self-cleavage is 0.971. With C33A G59C the figure was 0.521; with A70U A83C, 0.458. With C63A A87U the figure was 1.03; with A45C G81U, 0.262. For G40U C86U the value was 0.688. Take U46A G80C: the self-cleavage worked out at 0.0831.

Turning to G68U U79C, the self-cleavage is 0.415. For C32A C62A the value was 0.151; for G34A G68C, 0.0978; for C15U U20G, 0.166. With G38C G68U the figure was 0.272; with U46A G52C, 0.759; with G10A A42C, 0.0875. G54A C57A: the self-cleavage was found to be 0.818. For G25U G67U the value was 0.305.

For G6A G34C, the self-cleavage turned out to be 0.104. Turning to U46A U60A, the self-cleavage stood at 0.751. With C3G G76A the figure was 0.984. U37G U65C: the self-cleavage is 0.123. Turning to G11U A83C, the self-cleavage came to 0.119. With G54U C61G the figure was 0.889.

On to C18G C21U, for which the self-cleavage was 0.128.

Consider A70G G76U, for which the self-cleavage worked out at 0.997. With G6A G55C the figure was 0.791; with G35C C63U, 0.492. For G31C C61A the value was 0.332; for U12G C21G, 0.0665. For G54A C61U the value was 1.04; for U37A C66G, 0.158; for C7G U79G, 0.104. With G10A G53A, the self-cleavage turned out to be 0.841. On to A45C C66A, for which the self-cleavage worked out at 0.684. As for G34A C66G, the self-cleavage stood at 0.138. With G39U G53A, the self-cleavage was found to be 0.789.

As for G31A G54U, the self-cleavage was 0.197.

Take C61A G74A: the self-cleavage is 0.561. For C32A A43U the value was 0.108; for G25A A83C, 0.146; for C66U G68U, 0.935. With G29A C36G the figure was 0.111; with U69A U72C, 0.665; with U9G A16C, 0.712. For C24U C62G the value was 0.341; for G34U C41G, 0.0723; for U27A G39A, 0.356. Consider C13U U72G, for which the self-cleavage was 0.266. G67U A71C: the self-cleavage amounted to 0.892. For G68U U72G the value was 0.359; for U60C G68A, 0.81; for C14U G82C, 0.415.

Regarding C7G G81C, the self-cleavage amounted to 0. Turning to C32U U65G, the self-cleavage was 0.956.

With C66U G67U, the self-cleavage turned out to be 0.972. For G1U U65G the value was 0.17; for C4A C66A, 0.177.

With G1A A77U, the self-cleavage stood at 0. C44A A77U: the self-cleavage amounted to 0.203. With C22G A70U the figure was 0.173. For G25U C64G the value was 0.154; for A8U G17C, 0.0755; for G55U C64U, 1.05.

Regarding C21U A70U, the self-cleavage was determined as 0.228.

Consider C57U C62U, for which the self-cleavage is 0.799.

In the case of C15A G55U, the self-cleavage came out at 0.608. In the case of U20A C85A, the self-cleavage was determined as 0.26. With C24A C61G the figure was 0.678. For C4U A8C the value was 0.443; for G17U C24A, 0.116. For G11C U79G the value was 0.0875; for G2A G10U, 0.0837. For the variant C4U U20A, the self-cleavage came out at 0.0554. As for A16C G67A, the self-cleavage was 0.506. Turning to C7A C58U, the self-cleavage turned out to be 0.731.

G5A C24U: the self-cleavage amounted to 0.

For the variant U20G U46G, the self-cleavage came out at 0. With U20A A70G the figure was 0.147. For G17A C62A the value was 0.886; for U37A G68A, 0.381. C3U U65C: the self-cleavage was 0.78. For A51C A83U the value was 0.609; for C4G A87G, 0.0715; for G59C G74C, 0.0678. With C61A C66G the figure was 0.942. As to G25A U27G, the self-cleavage amounted to 0.133.

Take G28C C57G: the self-cleavage came to 0.115. With U9C C14A the figure was 0.982. With G35A C49U, the self-cleavage is 0.596.

G2A C18G: the self-cleavage was found to be 0.0817. With C15A C85A the figure was 0.623; with C30A A87C, 0.596; with C13U U69A, 0.8. For C14A G28A the value was 0.141; for A71G U72G, 0.516. For C41U G73U the value was 0.511.

G35C G53U: the self-cleavage is 0.204. In the case of G1U G17U, the self-cleavage worked out at 0.309. Take U27G C62U: the self-cleavage was found to be 1.02.

With G38A G76A, the self-cleavage stood at 0.112. G39C C84A: the self-cleavage is 0.19. Take A51G G74A: the self-cleavage is 0.406. Take U46C A83U: the self-cleavage stood at 0.554. As to G28A G82U, the self-cleavage is 0.138. For G5A G35C the value was 0.119; for G39U G52U, 0.66. With G29A G54A the figure was 0.0989; with A43U C48U, 0.608. On to C44G C85G, for which the self-cleavage worked out at 0.831. For C19G G28A the value was 0.237; for C75G U79G, 0.0791; for G6C C15U, 0.138. For C24A A56G the value was 0.404; for U9A A87G, 1.13; for A70C A87U, 1.04. Consider G38U U46C, for which the self-cleavage came to 0.135.

As for G34A U69G, the self-cleavage is 0.306.

Take G34A C86G: the self-cleavage was determined as 0.121. For G53C C84U the value was 0.712. As to C64A A78G, the self-cleavage was determined as 0.686. For G38C G67A the value was 0.194; for C13U A77U, 0.155; for G28C A45G, 0.0811. For G2A C32A, the self-cleavage came to 0.0507. In the case of G25C A78C, the self-cleavage was 0.0773. For G35A G50C the value was 0.346. With G52C G82U, the self-cleavage turned out to be 0.283. For C7G C14A the value was 0.0923; for C3U C62U, 0.762. For C22A G68C the value was 0.22; for G25U U79G, 0.0426. For G31U C32U, the self-cleavage turned out to be 0.115.

As to C41U C66A, the self-cleavage stood at 0.719.

With C26G U37A, the self-cleavage worked out at 0.213. With C44U G68U the figure was 0.607.
